Data on three molecules can be found in US20220220224A1 (Hoffmann-La Roche, published 2022).

Residue numbers refer to the chain shown, from its start. Names and notes keep the numbering of the source. Like-named read-outs stand apart in the source and are kept apart here.

Test [1] deals with T1, recombinant biotinylated monomeric Fc fusion of human Folate Receptor 1 (huFolR1 ECD-AcTev-Fcknob-Avi tag … (human, UniProt P0DOX5 223-449 = IgG part, biotin on the C-terminal Avi tag)).
T1 construct: also called huFolR1-Fc; human FolR1-Fc
Briefly: SPR Biacore, avidity set-up, steady state. Here is the method: (§1) The avidity of the interaction between the anti-FolR1 IgGs or T cell bispecifics and the recombinant folate receptors was determined as described below (Table 41).
(§2) Recombinant biotinylated monomeric Fc fusions of human, cynomolgus and murine Folate Receptor 1 (FolR1-Fc) were directly coupled on a SA chip using the standard coupling instruction (Biacore, Freiburg/Germany). The immobilization level was about 300. […] The dissociation was monitored for 240 or 600 seconds. Bulk refractive index differences were corrected for by subtracting the response obtained on reference flow cell immobilized with recombinant biotinylated murine IL2 receptor Fc fusion. The binding curves resulting from the bivalent binding of the IgG or T cell bispecifics were approximated to a 1:1 Langmuir binding (even though it is a 1:2 binding) and fitted with that model to get an apparent KD representing the avidity of the bivalent binding. The apparent avidity constants for the interactions were derived from the rate constants of the fitting using the Bia Evaluation software (GE Healthcare). For low affinity kinetics with association and dissociation phases too fast to be fitted by the 1:1 Langmuir binding model, the steady state analysis model was applied using the Bia Evaluation software (GE Healthcare). The steady state analysis gives the KD of the binding reaction at equilibrium.

Test [2] deals with T2, recombinant biotinylated monomeric Fc fusion of cynomolgus Folate Receptor 1 (cy FolR1 ECD-AcTev-Fcknob-Avi … (cynomolgus, UniProt P0DOX5 223-449 = IgG part, biotin on the C-terminal Avi tag)).
T2 construct: also called cyFolR1-Fc; cyno FolR1
Briefly: SPR Biacore, avidity set-up, steady state. How it is done: as §1, §2

Test [3] addresses T1, recombinant biotinylated monomeric Fc …. Kind of test: SPR Biacore, avidity (bivalent, apparent KD), antigen-Fc on SA chip. How it is done:
as §1, §2

Test [4] concerns the target T2, recombinant biotinylated monomeric Fc …. The test is described as above. How it is done: as §1, §2
Test [5] concerns the target T1, recombinant biotinylated monomeric Fc …. Kind of test: SPR Biacore, affinity (monovalent), antibody captured via anti-Fab, steady state. Here is the method: The affinity of the interaction between the anti-FolR1 IgGs or the T cell bispecifics and the recombinant folate receptors was determined as described below (Table 42).
For affinity measurement, direct coupling of around 10000 resonance units (RU) of the anti-human Fab specific antibody (Fab capture kit, GE Healthcare) was performed on a CM5 chip at pH 5.0 using the standard amine coupling kit (GE Healthcare). Anti-FolR1 IgGs or T cell bispecifics were captured at 200 nM with a flow rate of 10 ul/min for 40 sec, the reference flow cell was left without capture. Dilution series (12.35 to 3000 nM) of human Folate Receptor 1 Fc fusion were passed on all flow cells at 30 μl/min for 240 sec to record the association phase. The dissociation phase was monitored for 300 s and triggered by switching from the sample solution to HBS-EP. The chip surface was regenerated after every cycle using a double injection of 60 sec 10 mM Glycine-HCl pH 1.5. Bulk refractive index differences were corrected for by subtracting the response obtained on the reference flow cell 1. […]
A general note: In SPR one partner is held on a chip, and binding of the other changes the refractive index at the surface.

The target of test [6] is T3, human FolR1 expressed on cells (HeLa, SKOV3, HT-29, transfected HEK cells) (human, UniProt P15328 25-234). Kind of test: cell-based or functional assay.
The target of test [7] is T3, human FolR1 expressed on cells (HeLa, …). Kind of test: cell-based or functional assay. This is another data set of the same source.
Test [8] addresses T1, recombinant biotinylated monomeric Fc …. Briefly: SPR Biacore, avidity (bivalent).
For test [9] the target is unchanged. Briefly: SPR Biacore, affinity (monovalent).
The target in test [10] is T4, recombinant biotinylated monomeric Fc fusion of murine Folate Receptor 1 (mu FolR1 ECD-AcTev-Fcknob-Avitag … (murine, UniProt P0DOX5 223-449 = IgG part, biotin on the C-terminal Avi tag)).
T4 construct: also called muFolR1-Fc; murine FolR1
Kind of test: SPR Biacore, single injection on immobilized antigen-Fc. How it is done:
(§3) All SPR experiments were performed on a Biacore T200 at 25° C. with HBS-EP as running buffer (0.01 M HEPES pH 7.4, 0.15 M NaCl, 3 mM EDTA, 0.005% Surfactant P20, Biacore, GE Healthcare). The molecules used for affinity and avidity determination are described in Table 45.
(§4) First the anti-FolR1 TCBs were analyzed by single injections (Table 46) to characterize their crossreactivity (to human, murine and cyno FolR1) and specificity (to human FolR1, human FolR2, human FolR3). Recombinant biotinylated monomeric Fc fusions of human, cynomolgus and murine Folate Receptor 1 (FolR1-Fc) or human Folate Receptor 2 and 3 (FolR2-Fc, FolR3-Fc) were directly coupled on a SA chip using the standard coupling instruction (Biacore, Freiburg/Germany). The immobilization level was about 300-400 RU. The TCBs were injected for 60 seconds at a concentration of 500 nM.

Test [11] deals with T5, recombinant biotinylated monomeric Fc fusion of human Folate Receptor 2 (hu FolR2 ECD-AcTev-Fcknob-Avi tag … (human, UniProt P0DOX5 223-449 = IgG part, biotin on the C-terminal Avi tag)).
T5 construct: also called FolR2-Fc
Described as above. Here is the method:
as §3, §4

Test [12] addresses T6, recombinant biotinylated monomeric Fc fusion of human Folate Receptor 3 (hu FolR3 ECD-AcTev-Fcknob-Avi tag … (human, UniProt P0DOX5 223-449 = IgG part, biotin on the C-terminal Avi tag)).
T6 construct: also called FolR3-Fc
The description is as above. How it is done:
as §3, §4

Test [13] addresses T1, recombinant biotinylated monomeric Fc …. Briefly: SPR Biacore, avidity (bivalent, apparent KD), antigen-Fc on SA chip. This is another data set of the same source.
Test [14] concerns the target T2, recombinant biotinylated monomeric Fc …. The test is described as above. The source holds these as a separate data set.
Test [15] concerns the target T1, recombinant biotinylated monomeric Fc …. Briefly: SPR Biacore, affinity (monovalent), antibody captured via anti-Fab, steady state analysis. Here is the method: as §3
(§5) For affinity measurement, direct coupling of around 12000 resonance units (RU) of the anti-human Fab specific antibody (Fab capture kit, GE Healthcare) was performed on a CM5 chip at pH 5.0 using the standard amine coupling kit (GE Healthcare). Anti-FolR1 T cell bispecifics were captured at 20 nM with a flow rate of 10 μl/min for 40 sec, the reference flow cell was left without capture. […] The dissociation phase was monitored for 300 s and triggered by switching from the sample solution to HBS-EP. The chip surface was regenerated after every cycle using a double injection of 60 sec 10 mM Glycine-HCl pH 2.1. Bulk refractive index differences were corrected for by subtracting the response obtained on the reference flow cell 1. The affinity constants for the interactions were derived from the rate constants by fitting to a 1:1 Langmuir binding using the Bia Evaluation software (GE Healthcare). For low affinity kinetics with association and dissociation phases too fast to be fitted by the 1:1 Langmuir binding model, the steady state analysis model was applied using the Bia Evaluation software (GE Healthcare). The steady state analysis gives the KD of the binding reaction at equilibrium.

In test [16] the target is T2, recombinant biotinylated monomeric Fc …. The description is as above. Here is the method:
as §3, §5

T3 sequence (P15328 25-234): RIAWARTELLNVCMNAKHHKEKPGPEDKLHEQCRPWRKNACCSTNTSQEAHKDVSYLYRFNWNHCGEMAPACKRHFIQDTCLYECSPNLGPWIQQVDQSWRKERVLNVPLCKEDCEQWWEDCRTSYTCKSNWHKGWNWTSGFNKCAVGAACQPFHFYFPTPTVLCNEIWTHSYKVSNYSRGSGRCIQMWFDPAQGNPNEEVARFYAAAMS

B1: 16D5 IgG variant W96Y/K53A (HC/LC) (antibody, V domains shown)
VH: not shown
VL: QTVVTQEPSLTVSPGGTVTLTCGSSTGAVTTSNYANWVQQKPGQAPRGLIGGTNARAPGTPARFSGSLLGGKAALTLSGVQPEDEAEYYCALWYSNLWVFGGGTKLTVL
notes: IgG
As to B1, the results for the Kd in test [1] and in test [2] were 580 nM and 660 nM, respectively.

B2: 16D5 IgG variant W98Y/wt (HC/LC) (antibody, V domains shown)
VH: not shown
VL: B1 VL with T2A, Q40E, P46F, A55K, V80A
notes: IgG
For the molecule B2, in [3], the Kd is 240 nM, the off-rate (koff) was 0.0328 s⁻¹ and the kon was found to be 136000 M⁻¹ s⁻¹. In [4], the Kd is 200 nM, the off-rate (koff) amounted to 0.0361 s⁻¹ and the association rate constant (kon) amounted to 171000 M⁻¹ s⁻¹. In [5], the Kd was determined as 5400 nM.

B3: 16D5 W96Y/D52E TCB (2+1 inverted, common light chain) (bispecific antibody)
heavy 1: not shown
heavy 2: not shown
light: QAVVTQEPSLTVSPGGTVTLTCGSSTGAVTTSNYANWVQEKPGQAFRGLIGGTNKRAPGTPARFSGSLLGGKAALTLSGAQPEDEAEYYCALWYSNLWVFGGGTKLTVLGQPKAAPSVTLFPPSSEELQANKATLVCLISDFYPGAVTVAWKADSSPVKAGVETTTPSKQSNNKYAASSYLSLTPEQWKSHRSYSCQVTHEGSTVEKTVAPTECS
With B3, in [6], the “EC50 of T-cell killing of Hela, 24 h” value was 0.0013 nM. Further, the “EC50 of T-cell killing of SKov-3, 24 h” value in test [6] came to 0.235 nM. Also, the “EC50 of T-cell killing of HT-29, 48 h” value in test [7] was 0.399 nM. The “EC50 of T-cell killing of Hela, 48 h” value in test [7] is 0.0009 nM. For the same molecule, in test [7], the “EC50 of T-cell killing of SKov-3, 48 h” value was found to be 0.093 nM. Also, the “fold lower avidity than 16D5 WT (3 nM)” value in [8] was found to be 3 fold. In addition, the “fold lower affinity than 16D5 WT (57 nM)” value in [9] was 24.5 fold. The binding result in [10], in test [11] and in [12] was “no binding (tested: 500 nM)” throughout. In addition, the Kd in [13] was 10 nM; in test [14] it was 30 nM; in test [15] it was 1400 nM; in test [16], 5600 nM. For the same molecule, the figures for the dissociation rate constant (koff) in test [13] and in [14] were 0.0014 s⁻¹ and 0.0141 s⁻¹, respectively. The kon in [13] is 124000 M⁻¹ s⁻¹; in test [14], 517000 M⁻¹ s⁻¹.

For orientation: koff means a measure of how fast the partners let go of each other. In general, kon refers to the second-order rate constant of association.
